Assay results taken from IntAct's records for PubMed 32296183.

B1: Ceroid-lipofuscinosis neuronal protein 6 (Homo sapiens), Q9NWW5 (parent)
chain: MEATRRRQHLGATGGPGAQLGASFLQARHGSVSADEAARTAPFHLDLWFYFTLQNWVLDFGRPIAMLVFPLEWFPLNKPSVGDYFHMAYNVITPFLLLKLIERSPRTLPRSITYVSIIIFIMGASIHLVGDSVNHRLLFSGYQHHLSVRENPIIKNLKPETLIDSFELLYYYDEYLGHCMWYIPFFLILFMYFSGCFTASKAESLIPGPALLLVAPSGLYYWYLVTEGQIFILFIFTFFAMLALVLHQKRKRLFLDSNGLFLFSSFALTLLLVALWVAWLWNDPVLRKKYPGVIYVPEPWAFYTLHVSSRH
partner: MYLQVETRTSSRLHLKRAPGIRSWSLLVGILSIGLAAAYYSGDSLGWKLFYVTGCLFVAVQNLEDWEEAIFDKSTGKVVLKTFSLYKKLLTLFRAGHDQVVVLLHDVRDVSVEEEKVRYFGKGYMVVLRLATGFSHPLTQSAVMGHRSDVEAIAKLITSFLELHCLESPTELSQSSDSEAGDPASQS
B2: Very-long-chain enoyl-CoA reductase (Homo sapiens), Q9NZ01 (parent)
chain: MKHYEVEILDAKTREKLCFLDKVEPHATIAEIKNLFTKTHPQWYPARQSLRLDPKGKSLKDEDVLQKLPVGTTATLYFRDLGAQISWVTVFLTEYAGPLFIYLLFYFRVPFIYGHKYDFTSSRHTVVHLACICHSFHYIKRLLETLFVHRFSHGTMPLRNIFKNCTYYWGFAAWMAYYINHPLYTPPTYGAQQVKLALAIFVICQLGNFSIHMALRDLRPAGSKTRKIPYPTKNPFTWLFLLVSCPNYTYEVGSWIGFAIMTQCLPVALFSLVGFTQMTIWAKGKHRSYLKEFRDYPPLRMPIIPFLL
partner: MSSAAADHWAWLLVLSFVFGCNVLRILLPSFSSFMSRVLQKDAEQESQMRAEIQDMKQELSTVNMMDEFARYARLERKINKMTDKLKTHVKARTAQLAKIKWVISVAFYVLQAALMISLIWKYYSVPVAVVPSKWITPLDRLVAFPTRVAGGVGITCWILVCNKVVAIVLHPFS
B3: Golgi SNAP receptor complex member 2 (Homo sapiens), O14653 (parent)
chain: MDPLFQQTHKQVHEIQSCMGRLETADKQSVHIVENEIQASIDQIFSRLERLEILSSKEPPNKRQNARLRVDQLKYDVQHLQTALRNFQHRRHAREQQERQREELLSRTFTTNDSDTTIPMDESLQFNSSLQKVHNGMDDLILDGHNILDGLRTQRLTLKGTQKKILDIANMLGLSNTVMRLIEKRAFQDKYFMIGGMLLTCVVMFLVVQYLT
partner: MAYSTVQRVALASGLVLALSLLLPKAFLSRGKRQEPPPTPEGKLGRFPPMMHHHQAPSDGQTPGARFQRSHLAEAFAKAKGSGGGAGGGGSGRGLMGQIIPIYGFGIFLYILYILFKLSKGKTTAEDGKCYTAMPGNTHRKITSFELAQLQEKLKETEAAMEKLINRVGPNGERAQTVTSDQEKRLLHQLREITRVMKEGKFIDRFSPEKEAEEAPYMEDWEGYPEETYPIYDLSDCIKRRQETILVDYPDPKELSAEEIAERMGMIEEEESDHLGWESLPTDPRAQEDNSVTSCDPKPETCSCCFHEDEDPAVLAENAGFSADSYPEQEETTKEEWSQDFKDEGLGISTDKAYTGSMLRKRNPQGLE
B4: Golgi SNAP receptor complex member 2 (Homo sapiens), O14653 (parent)
chain: B3 chain
partner: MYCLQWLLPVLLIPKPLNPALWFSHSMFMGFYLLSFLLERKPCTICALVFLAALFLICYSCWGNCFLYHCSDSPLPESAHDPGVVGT
B5: Golgi SNAP receptor complex member 2 (Homo sapiens), O14653 (parent)
chain: B3 chain
partner: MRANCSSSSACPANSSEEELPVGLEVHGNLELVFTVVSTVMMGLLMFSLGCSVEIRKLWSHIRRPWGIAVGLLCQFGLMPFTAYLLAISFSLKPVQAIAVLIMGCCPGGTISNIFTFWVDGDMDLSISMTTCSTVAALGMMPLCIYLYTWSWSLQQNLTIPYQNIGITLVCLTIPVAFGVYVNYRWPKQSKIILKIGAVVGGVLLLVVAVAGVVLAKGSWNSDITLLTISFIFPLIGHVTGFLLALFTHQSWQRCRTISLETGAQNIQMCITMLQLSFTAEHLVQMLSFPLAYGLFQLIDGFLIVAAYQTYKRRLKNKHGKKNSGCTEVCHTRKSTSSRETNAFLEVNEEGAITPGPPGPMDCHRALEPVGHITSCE
B6: Catenin alpha-3 (Homo sapiens), Q9UI47-2 (parent)
chain: MSAETPITLNIDPQDLQVQTFTVEKLLEPLIIQVTTLVNCPQNPSSRKKGRSKRASVLLASVEEATWNLLDKGEKIAQEATVLKDELTASLEEVRKESEALKVSAERFTDDPCFLPKREAVVQAARALLAAVTRLLILADMIDVMCLLQHVSAFQRTFESLKNVANKSDLQKTYQKLGKELENLDYLAFKRQQDLKSPNQRDEIAGARASLKENSPLLHSICSACLEHSDVASLKASKDTVCEEIQNALNVISNASQGIQNMTTPPEPQAATLGSALDELENLIVLNPLTVTEEEIRPSLEKRLEAIISGAALLADSSCTRDLHRERIIAECNAIRQALQDLLSEYMNNAGKKERSNTLNIALDNMCKKTRDLRRQLRKAIIDHVSDSFLDTTVPLLVLIEAAKNGREKEIKEYAAIFHEHTSRLVEVANLACSMSTNEDGIKIVKIAANHLETLCPQIINAALALAARPKSQAVKNTMEMYKRTWENHIHVLTEAVDDITSIDDFLAVSGMFLFF
partner: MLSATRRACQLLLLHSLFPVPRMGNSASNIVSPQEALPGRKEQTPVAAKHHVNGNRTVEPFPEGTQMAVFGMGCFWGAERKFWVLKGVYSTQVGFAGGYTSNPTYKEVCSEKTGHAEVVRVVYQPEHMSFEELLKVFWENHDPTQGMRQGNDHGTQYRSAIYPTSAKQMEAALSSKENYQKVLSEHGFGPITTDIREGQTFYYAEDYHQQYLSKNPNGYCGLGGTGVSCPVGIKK
B7: Golgi SNAP receptor complex member 2 (Homo sapiens), O14653 (parent)
chain: B3 chain
partner: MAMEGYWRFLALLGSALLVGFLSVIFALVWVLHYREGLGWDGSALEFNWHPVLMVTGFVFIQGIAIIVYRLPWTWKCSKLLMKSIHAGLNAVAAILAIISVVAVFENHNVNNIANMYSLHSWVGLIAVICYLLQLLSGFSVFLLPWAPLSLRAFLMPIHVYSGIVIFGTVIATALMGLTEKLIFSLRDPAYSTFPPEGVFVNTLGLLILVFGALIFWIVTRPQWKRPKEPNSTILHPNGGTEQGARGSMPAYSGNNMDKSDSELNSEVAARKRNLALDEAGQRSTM

Variants of: B1
Settings: with cybc1_human CYBC1, Q9BQA9

Row | effect of a mutation on the interaction | Variant
1 | disrupting interaction strength | MEATRTRQHLGATGGPGAQLGASFLQARHGSVSADEAARTAPFHLDLWFYFTLQNWVLDFGRPIAMLVFPLEWFPLNKPSVGDYFHMAYNVITPFLLLKLIERSPRTLPRSITYVSIIIFIMGASIHLVGDSVNHRLLFSGYQHHLSVRENPIIKNLKPETLIDSFELLYYYDEYLGHCMWYIPFFLILFMYFSGCFTASKAESLIPGPALLLVAPSGLYYWYLVTEGQIFILFIFTFFAMLALVLHQKRKRLFLDSNGLFLFSSFALTLLLVALWVAWLWNDPVLRKKYPGVIYVPEPWAFYTLHVSSRH [R6T]
2 | disrupting interaction strength | MEATRRRQHLGATGGPGAQLGASFLQARHGSVSADEAARTAPFHLDFWFYFTLQNWVLDFGRPIAMLVFPLEWFPLNKPSVGDYFHMAYNVITPFLLLKLIERSPRTLPRSITYVSIIIFIMGASIHLVGDSVNHRLLFSGYQHHLSVRENPIIKNLKPETLIDSFELLYYYDEYLGHCMWYIPFFLILFMYFSGCFTASKAESLIPGPALLLVAPSGLYYWYLVTEGQIFILFIFTFFAMLALVLHQKRKRLFLDSNGLFLFSSFALTLLLVALWVAWLWNDPVLRKKYPGVIYVPEPWAFYTLHVSSRH [L47F]
3 | disrupting interaction strength | MEATRRRQHLGATGGPGAQLGASFLQARHGSVSADEAARTAPFHLDLWFYFTLQNWVLDFGRPIAMLVFPLEWFPLNKPSVGDYFHMAYNVITPFLLLKLIERSPRTLPRSITYVSIIIFIMDASIHLVGDSVNHRLLFSGYQHHLSVRENPIIKNLKPETLIDSFELLYYYDEYLGHCMWYIPFFLILFMYFSGCFTASKAESLIPGPALLLVAPSGLYYWYLVTEGQIFILFIFTFFAMLALVLHQKRKRLFLDSNGLFLFSSFALTLLLVALWVAWLWNDPVLRKKYPGVIYVPEPWAFYTLHVSSRH [G123D]

Variants of: B2
Settings: with get1_human GET1, O00258

Row | effect of a mutation on the interaction | Variant
4 | disrupting interaction strength | MKHYEVEILDAKTREKLCFLDKVEPHATIAEIKNLFTKTHPQWYPARQSLRLDPKGKSLKDEDVLQKLPVGTTATLYFRDLGAQISWVTVFLTEYAGPLFIYLLFYFRVPFIYGHKYDFTSSRHTVVHLACICHSFHYIKRLLETLFVHRFSHGTMPLRNIFKNCTYYWGFAAWMAYYINHLLYTPPTYGAQQVKLALAIFVICQLGNFSIHMALRDLRPAGSKTRKIPYPTKNPFTWLFLLVSCPNYTYEVGSWIGFAIMTQCLPVALFSLVGFTQMTIWAKGKHRSYLKEFRDYPPLRMPIIPFLL [P182L]

Variants of: B3
Settings: with RIC3, Q7Z5B4-5

Row | effect of a mutation on the interaction | Variant
5 | disrupting interaction strength | MDPLFQQTHKQVHEIQSCMGRLETADKQSVHIVENEIQASIDQIFSRLERLEILSSKEPPNKRQNARLRVDQLKYDVQHLQTALRNFQHRRHAREQQERQREELLSRTFTTNDSDTTIPMDESLQFNSSLQKVHNGMDDLILDWHNILDGLRTQRLTLKGTQKKILDIANMLGLSNTVMRLIEKRAFQDKYFMIGGMLLTCVVMFLVVQYLT [G144W]

Variants of: B4
Settings: with blcap_human BLCAP

Row | effect of a mutation on the interaction | Variant
6 | with no effect | MDPLFQQTHKQVHEIQSCMGRLETADKQSVHIVENEIQASIDQIFSRLERLEILSSKEPPNKRQNARLRVDQLKYDVQHLQTALRNFQHRRHAREQQERQREELLSRTFTTNDSDTTIPMDESLQFNSSLQKVHNGMDDLILDWHNILDGLRTQRLTLKGTQKKILDIANMLGLSNTVMRLIEKRAFQDKYFMIGGMLLTCVVMFLVVQYLT [G144W]

Variants of: B5
Settings: with soat_human SLC10A6, Q3KNW5

Row | effect of a mutation on the interaction | Variant
7 | with no effect | MDPLFQQTHKQVHEIQSCMGRLETADKQSVHIVENEIQASIDQIFSRLERLEILSSKEPPNKRQNARLRVDQLKYDVQHLQTALRNFQHRRHAREQQERQREELLSRTFTTNDSDTTIPMDESLQFNSSLQKVHNGMDDLILDWHNILDGLRTQRLTLKGTQKKILDIANMLGLSNTVMRLIEKRAFQDKYFMIGGMLLTCVVMFLVVQYLT [G144W]

Variants of: B6
Settings: with msra_human MSRA

Row | effect of a mutation on the interaction | Variant
8 | with no effect | MSAETPITLNIDPQDLQVQTFTVEKLLEPLIIQVTTLVNCPQNPSSRKKGRSKRASVLLASVEEATWNLLDKGEKIAQEATVLKDELTASLEEDRKESEALKVSAERFTDDPCFLPKREAVVQAARALLAAVTRLLILADMIDVMCLLQHVSAFQRTFESLKNVANKSDLQKTYQKLGKELENLDYLAFKRQQDLKSPNQRDEIAGARASLKENSPLLHSICSACLEHSDVASLKASKDTVCEEIQNALNVISNASQGIQNMTTPPEPQAATLGSALDELENLIVLNPLTVTEEEIRPSLEKRLEAIISGAALLADSSCTRDLHRERIIAECNAIRQALQDLLSEYMNNAGKKERSNTLNIALDNMCKKTRDLRRQLRKAIIDHVSDSFLDTTVPLLVLIEAAKNGREKEIKEYAAIFHEHTSRLVEVANLACSMSTNEDGIKIVKIAANHLETLCPQIINAALALAARPKSQAVKNTMEMYKRTWENHIHVLTEAVDDITSIDDFLAVSGMFLFF [V94D]

Variants of: B7
Settings: with cybr1_human CYBRD1, Q53TN4

Row | effect of a mutation on the interaction | Variant
9 | with no effect | MDPLFQQTHKQVHEIQSCMGRLETADKQSVHIVENEIQASIDQIFSRLERLEILSSKEPPNKRQNARLRVDQLKYDVQHLQTALRNFQHRRHAREQQERQREELLSRTFTTNDSDTTIPMDESLQFNSSLQKVHNGMDDLILDWHNILDGLRTQRLTLKGTQKKILDIANMLGLSNTVMRLIEKRAFQDKYFMIGGMLLTCVVMFLVVQYLT [G144W]
